In US12285470B2, “Trim proteins and galectins cooperate and codirect autophagy and are useful in the treatment of autophagy related diseases” (UNM RAINFOREST INNOVATIONS, priority 2016, dated 2025):

Experiments:
Galectin-3 = biological target: T1, Galectin-3 (Homo sapiens, UniProt P17931); experiment: GST pulldown of in vitro translated radiolabeled TRIMs with GST-Galectin-3; format: binding; conditions: in vitro translated 35S-Myc-HA-TRIMs, no ULK1 added
T1 construct: made in house; host or cells: Escherichia coli SoluBL21
T1 sequence (P17931 whole entry): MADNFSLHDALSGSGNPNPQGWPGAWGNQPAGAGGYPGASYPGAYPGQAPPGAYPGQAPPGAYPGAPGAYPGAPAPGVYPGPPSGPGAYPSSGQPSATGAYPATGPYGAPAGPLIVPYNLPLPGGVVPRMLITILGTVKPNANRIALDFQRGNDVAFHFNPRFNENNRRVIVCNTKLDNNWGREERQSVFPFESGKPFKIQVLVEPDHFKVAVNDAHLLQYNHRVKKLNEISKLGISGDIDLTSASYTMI
Excerpt: (§1) GST-fusion proteins were expressed in Escherichia coli SoluBL21 (Amsbio). […] The [^35S] labeled proteins were produced using the TNT T7 Quick Coupled Transcription/Translation System (Promega) in the presence of [^35S] L-methionine. The proteins were eluted from washed beads by boiling in SDS-PAGE gel loading buffer. separated by SDS-PAGE, and radiolabeled proteins were detected in a Fujifilm bioimaging analyzer BAS-5000 (Fuji).

Galectin-8 = biological target: T2, Galectin-8 (Homo sapiens, UniProt O00214); experiment: GST pulldown of in vitro translated radiolabeled TRIMs with GST-Galectin-8; format: binding; conditions: in vitro translated 35S-Myc-HA-TRIMs
T2 construct: made in house; host or cells: Escherichia coli SoluBL21
T2 sequence (O00214 1-359 isoform O00214-2): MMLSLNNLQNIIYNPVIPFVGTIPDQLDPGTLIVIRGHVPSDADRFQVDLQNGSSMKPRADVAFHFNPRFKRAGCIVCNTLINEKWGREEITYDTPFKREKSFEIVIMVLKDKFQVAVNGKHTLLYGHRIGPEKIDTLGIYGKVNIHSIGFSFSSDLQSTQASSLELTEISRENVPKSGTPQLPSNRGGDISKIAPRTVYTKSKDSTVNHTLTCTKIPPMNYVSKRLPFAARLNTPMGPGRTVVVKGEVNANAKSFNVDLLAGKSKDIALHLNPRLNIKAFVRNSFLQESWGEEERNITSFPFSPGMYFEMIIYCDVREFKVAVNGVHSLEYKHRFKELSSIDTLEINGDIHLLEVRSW
Excerpt: as §1

Molecule | binding to GST-Galectin-3 in GST pulldown (Galectin-3) | binding to GST-Galectin-8 in GST pulldown (Galectin-8)
TRIM21: TRIM protein, Accession No. NM_003141, SEQ ID NO: 8 | did not | did not
TRIM 17: TRIM (tripartite motif) protein tested in GST-Galectin pulldowns (protein, left off: small tags and cut ends, TRIM (tripartite motif) protein tested in GST-Galectin pulldowns) MEAVELARKLQEEATCSICLDYFTDPVMTTCGHNFCRACIQLSWEKARGKKGRRKRKGSFPCPECREMSPQRNLLPNRLLTKVAEMAQQHPGLQKQDLCQEHHEPLKLFCQKDQSPICVVCRESREHRLHRVLPAEEAVQGYKLKLEEDMEYLREQITRTGNLQAREEQSLAEWQGKVKERRERIVLEFEKMNLYLVEEEQRLLQALETEEEETASRLRESVACLDRQGHSLELLLLQLEERSTQGPLQMLQDMKEPLSRKNNVSVQCPEVAPPTRPRTVCRVPGQIEVLRGFLEDVVPDATSAYPYLLLYESRQRRYLGSSPEGSGFCSKDRFVAYPCAVGQTAFSSGRHYWEVGMNITGDALWALGVCRDNVSRKDRVPKCPENGFWVVQLSKGTKYLSTFSALTPVMLMEPPSHMGIFLDFEAGEVSFYSVSDGSHLHTYSQATFPGPLQPFFCLGAPKSGQMVISTVTMWVKG | bound | bound
TRIM20: TRIM protein, Accession No. NM_000243, SEQ ID NO: 7 (protein, listed as Homo sapiens) MAKTPSDHLLSTLEELVPYDFEKFKFKLQNTSVQKEHSRIPRSQIQRARPVKMATLLVTYYGEEYAVQLTLQVLRAINQRLLAEELHRAAIQEYSTQENGTDDSAASSSLGENKPRSLKTPDHPEGNEGNGPRPYGGGAASLRCSQPEAGRGLSRKPLSKRREKASEGLDAQGKPRTRSPALPGGRSPGPCRALEGGQAEVRLRRNASSAGRLQGLAGGAPGQKECRPFEVYLPSGKMRPRSLEVTISTGEKAPANPEILLTLEEKTAANLDSATEPRARPTPDGGASADLKEGPGNPEHSVTGRPPDTAASPRCHAQEGDPVDGTCVRDSCSFPEAVSGHPQASGSRSPGCPRCQDSHERKSPGSLSPQPLPQCKRHLKQVQLLFCEDHDEPICLICSLSQEHQGHRVRPIEEVALEHKKKIQKQLEHLKKLRKSGEEQRSYGEEKAVSFLKQTEALKQRVQRKLEQVYYFLEQQEHFFVASLEDVGQMVGQIRKAYDTRVSQDIALLDALIGELEAKECQSEWELLQDIGDILHRAKTVPVPEKWTTPQEIKQKIQLLHQKSEFVEKSTKYFSETLRSEMEMFNVPELIGAQAHAVNVILDAETAYPNLIFSDDLKSVRLGNKWERLPDGPQRFDSCIIVLGSPSFLSGRRYWEVEVGDKTAWILGACKTSISRKGNMTLSPENGYWVVIMMKENEYQASSVPPTRLLIKEPPKRVGIFVDYRVGSISFYNVTARSHIYTFASCSFSGPLQPIFSPGTRDGGKNTAPLTICPVGGQGPD | bound | bound
TRIM6: TRIM (tripartite motif) protein tested in GST-Galectin pulldowns (protein, left off: small tags and cut ends, TRIM (tripartite motif) protein tested in GST-Galectin pulldowns) MTSPVLVDIREEVTCPICLELLTEPLSIDCGHSFCQACITPNGRESVIGQEGERSCPVCQTSYQPGNLRPNRHLANIVRRLREVVLGPGKQLKAVLCADHGEKLQLFCQEDGKVICWLCERSQEHRGHHTFLVEEVAQEYQEKFQESLKKLKNEEQEAEKLTAFIREKKTSWKNQMEPERCRIQTEFNQLRNILDRVEQRELKKLEQEEKKGLRIIEEAENDLVHQTQSLRELISDLERRCQGSTMELLQDVSDVTERSEFWTLRKPEALPTKLRSMFRAPDLKRMLRVCRELTDVQSYWVDVTLNPHTANLNLVLAKNRRQVRFVGAKVSGPSCLEKHYDCSVLGSQHFSSGKHYWEVDVAKKTAWILGVCSNSLGPTFSFNHFAQNHSAYSRYQPQSGYWVIGLQHNHEYRAYEDSSPSLLLSMTVPPRRVGVFLDYEAGTVSFYNVTNHGFPIYTFSKYYFPTTLCPYFNPCNCVIPMTLRRPSS | bound | bound
TRIM49: TRIM (tripartite motif) protein tested in GST-Galectin pulldowns (protein, left off: small tags and cut ends, TRIM (tripartite motif) protein tested in GST-Galectin pulldowns) MNSGILQVFQGELICPLCMNYFIDPVTIDCGHSFCRPCFYLNWQDIPFLVQCSECTKSTEQINLKTNIHLKKMASLARKVSLWLFLSSEEQMCGTHRETKKIFCEVDRSLLCLLCSSSQEHRYHRHRPIEWAAEEHREKLLQKMQSLWEKACENHRNLNVETTRTRCWKDYVNLRLEAIRAEYQKMPAFHHEEEKHNLEMLKKKGKEIFHRLHLSKAKMAHRMEILRGMYEELNEMCHKPDVELLQAFGDILHRSESVLLHMPQPLNPELSAGPITGLRDRLNQFRVHITLHHEEANNDIFLYEILRSMCIGCDHQDVPYFTATPRSFLAWGVQTFTSGKYYWEVHVGDSWNWAFGVCNMYRKEKNQNEKIDGKAGLFLLGCVKNDIQCSLFTTSPLMLQYIPKPTSRVGLFLDCEAKTVSFVDVNQSSLIYTIPNCSFSPPLRPIFCCIHF | bound | bound
TRIM56: TRIM protein, Accession No. NM_030961, SEQ ID NO: 10 (protein, listed as Homo sapiens) MVSHGSSPSLLEALSSDFLACKICLEQLRAPKTLPCLHTYCQDCLAQLADGGRVRCPECRETVPVPPEGVASFKTNFFVNGLLDLVKARACGDLRAGKPACALCPLVGGTSTGGPATARCLDCADDLCQACADGHRCTRQTHTHRVVDLVGYRAGWYDEEARERQAAQCPQHPGEALRFLCQPCSQLLCRECRLDPHLDHPCLPLAEAVRARRPGLEGLLAGVDNNLVELEAARRVEKEALARLREQAARVGTQVEEAAEGVLRALLAQKQEVLGQLRAHVEAAEEAARERLAELEGREQVARAAAAFARRVLSLGREAEILSLEGAIAQRLRQLQGCPWAPGPAPCLLPQLELHPGLLDKNCHLLRLSFEEQQPQKDGGKDGAGTQGGEESQSRREDEPKTERQGGVQPQAGDGAQTPKEEKAQTTREEGAQTLEEDRAQTPHEDGGPQPHRGGRPNKKKKFKGRLKSISREPSPALGPNLDGSGLLPRPIFYCSFPTRMPGDKRSPRITGLCPFGPREILVADEQNRALKRFSLNGDYKGTVPVPEGCSPCSVAALQSAVAFSASARLYLINPNGEVQWRRALSLSQASHAVAALPSGDRVAVSVAGHVEVYNMEGSLATRFIPGGKASRGLRALVFLTTSPQGHFVGSDWQQNSVVICDGLGQVVGEYKGPGLHGCQPGSVSVDKKGYIFLTLREVNKVVILDPKGSLLGDFLTAYHGLEKPRVTTMVDGRYLVVSLSNGTIHIFRVRSPDS | did not | did not
TRIM55: TRIM (tripartite motif) protein tested in GST-Galectin pulldowns (protein, left off: small tags and cut ends, TRIM (tripartite motif) protein tested in GST-Galectin pulldowns) MSASLNYKSFSKEQQTMDNLEKQLICPICLEMFTKPVVILPCQHNLCRKCASDIFQASNPYLPTRGGTTMASGGRFRCPSCRHEVVLDRHGVYGLQRNLLVENIIDIYKQESTRPEKKSDQPMCEEHEEERINIYCLNCEVPTCSLCKVFGAHKDCQVAPLTHVFQRQKSELSDGIAILVGSNDRVQGVISQLEDTCKTIEECCRKQKQELCEKFDYLYGILEERKNEMTQVITRTQEEKLEHVRALIKKYSDHLENVSKLVESGIQFMDEPEMAVFLQNAKTLLKKISEASKAFQMEKIEHGYENMNHFTVNLNREEKIIREIDFYREDEDEEEEEGGEGEKEGEGEVGGEAVEVEEVENVQTEFPGEDENPEKASELSQVELQAAPGALPVSSPEPPPALPPAADAPVTQGEVVPTGSEQTTESETPVPAAAETADPLFYPSWYKGQTRKATTNPPCTPGSEGLGQIGPPGSEDSNVRKAEVAAAAASERAAVSGKETSAPAATSQIGFEAPPLQGQAAAPASGSGADSEPARHIFSFSWLNSLNE | did not | did not
TRIM22: TRIM protein, Accession No. NM_006074, SEQ ID NO: 9 (protein, listed as Homo sapiens) MDFSVKVDIEKEVTCPICLELLTEPLSLDCGHSFCQACITAKIKESVIISRGESSCPVCQTRFQPGNLRPNRHLANIVERVKEVKMSPQEGQKRDVCEHHGKKLQIFCKEDGKVICWVCELSQEHQGHQTFRINEVVKECQEKLQVALQRLIKEDQEAEKLEDDIRQERTAWKNYIQIERQKILKGFNEMRVILDNEEQRELQKLEEGEVNVLDNLAAATDQLVQQRQDASTLISDLQRRLRGSSVEMLQDVIDVMKRSESWTLKKPKSVSKKLKSVFRVPDLSGMLQVLKELTDVQYYWVDVMLNPGSATSNVAISVDQRQVKTVRTCTFKNSNPCDFSAFGVFGCQYFSSGKYYWEVDVSGKIAWILGVHSKISSLNKRKSSGFAFDPSVNYSKVYSRYRPQYGYWVIGLQNTCEYNAFEDSSSSDPKVLTLFMAVPPCRIGVFLDYEAGIVSFFNVTNHGALIYKFSGCRFSRPAYPYFNPWNCLVPMTVCPPSS | bound | bound
